Patent publication US20100184651A1 (DABUR PHARMA, published 2010)

Biological target: T1, VPAC1 receptor (human, UniProt P32241 31-457)
T1 sequence (looked up): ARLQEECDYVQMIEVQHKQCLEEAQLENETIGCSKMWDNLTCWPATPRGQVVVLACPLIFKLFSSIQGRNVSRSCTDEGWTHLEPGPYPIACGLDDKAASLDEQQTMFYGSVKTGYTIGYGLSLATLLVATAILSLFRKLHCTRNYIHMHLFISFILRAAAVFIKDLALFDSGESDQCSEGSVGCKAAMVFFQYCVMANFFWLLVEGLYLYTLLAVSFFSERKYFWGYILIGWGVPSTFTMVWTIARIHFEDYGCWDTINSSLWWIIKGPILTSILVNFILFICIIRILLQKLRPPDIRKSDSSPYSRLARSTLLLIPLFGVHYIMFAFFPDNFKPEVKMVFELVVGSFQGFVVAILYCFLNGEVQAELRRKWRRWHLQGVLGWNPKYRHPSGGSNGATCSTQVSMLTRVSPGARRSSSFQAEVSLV
Test: cell-based or functional assay

B1: VIP-BH3 BID fusion protein (other)
chain: MHSDAVFTDNYTRLRKQMAVKKYLNSILNGSSLLIARRMPNFNEDIIRNIARHLAQVGDSMDRLEHHHHHH
With B1 the “IC50, cytotoxicity on A549 cells (MTT assay, 24 h)” value was roughly 5 µM and the “IC50, cytotoxicity on HT29 cells (MTT assay, 24 h)” value was roughly 15 µM.
